Assay results published in IntAct's records for PubMed 14561633.

B1: Transcription factor GLABRA 3 (Arabidopsis thaliana (Mouse-ear cress)), Q9FN69 (parent)
chain: MATGQNRTTVPENLKKHLAVSVRNIQWSYGIFWSVSASQSGVLEWGDGYYNGDIKTRKTIQASEIKADQLGLRRSEQLSELYESLSVAESSSSGVAAGSQVTRRASAAALSPEDLADTEWYYLVCMSFVFNIGEGMPGRTFANGEPIWLCNAHTADSKVFSRSLLAKSAAVKTVVCFPFLGGVVEIGTTEHITEDMNVIQCVKTSFLEAPDPYATILPARSDYHIDNVLDPQQILGDEIYAPMFSTEPFPTASPSRTTNGFDQEHEQVADDHDSFMTERITGGASQVQSWQLMDDELSNCVHQSLNSSDCVSQTFVEGAAGRVAYGARKSRVQRLGQIQEQQRNVKTLSFDPRNDDVHYQSVISTIFKTNHQLILGPQFRNCDKQSSFTRWKKSSSSSSGTATVTAPSQGMLKKIIFDVPRVHQKEKLMLDSPEARDETGNHAVLEKKRREKLNERFMTLRKIIPSINKIDKVSILDDTIEYLQELERRVQELESCRESTDTETRGTMTMKRKKPCDAGERTSANCANNETGNGKKVSVNNVGEAEPADTGFTGLTDNLRIGSFGNEVVIELRCAWREGVLLEIMDVISDLHLDSHSVQSSTGDGLLCLTVNCKHKGSKIATPGMIKEALQRVAWIC
partner: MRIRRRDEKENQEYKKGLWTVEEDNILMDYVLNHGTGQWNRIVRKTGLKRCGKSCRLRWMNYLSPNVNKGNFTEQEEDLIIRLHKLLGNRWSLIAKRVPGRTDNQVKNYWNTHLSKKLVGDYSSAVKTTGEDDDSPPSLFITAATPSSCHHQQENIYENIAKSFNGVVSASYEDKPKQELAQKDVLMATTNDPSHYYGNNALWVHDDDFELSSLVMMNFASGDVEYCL
B2: Transcription factor GLABRA 3 (Arabidopsis thaliana (Mouse-ear cress)), Q9FN69 (parent)
chain: B1 chain
partner: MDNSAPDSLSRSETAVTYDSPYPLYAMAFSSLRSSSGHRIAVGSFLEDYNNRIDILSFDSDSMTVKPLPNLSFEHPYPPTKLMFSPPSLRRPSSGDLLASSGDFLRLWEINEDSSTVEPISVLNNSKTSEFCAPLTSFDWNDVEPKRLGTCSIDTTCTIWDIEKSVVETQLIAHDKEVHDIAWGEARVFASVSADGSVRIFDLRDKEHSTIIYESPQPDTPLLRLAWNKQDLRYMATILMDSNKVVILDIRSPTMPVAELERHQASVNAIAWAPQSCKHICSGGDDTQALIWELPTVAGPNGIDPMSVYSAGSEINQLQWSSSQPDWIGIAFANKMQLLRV

Variants of: B1
Conditions: with gl1_arath GL1, P27900

Row | Variant | effect of a mutation on the interaction
1 | L78F | decreasing interaction

Variants of: B2
Conditions: with ttg1_arath TTG1, Q9XGN1

Row | Variant | effect of a mutation on the interaction
2 | L78F | decreasing interaction
